Laboratory results published in PMC10907630.
pKd: −log10 of the molar value.

Tested on: tau ΔMTBD-DBR (1N4R) del242-265, P10636-7
Test: EMSA
Details: 10 mM NaCl; text gives 430; EMSA: 20 nM DNA or nucleosome, 20 mM HEPES pH 7.2, 10 mM NaCl (or 150), 0.5 mM TCEP, 0.1% Tween-20, 5% sucrose, room temperature 20 min; FA: 10 nM DNA, same …

Sequence of tau ΔMTBD-DBR (1N4R) del242-265, P10636-7 (P10636 other isoform, or with tags, fused parts or gaps mutant): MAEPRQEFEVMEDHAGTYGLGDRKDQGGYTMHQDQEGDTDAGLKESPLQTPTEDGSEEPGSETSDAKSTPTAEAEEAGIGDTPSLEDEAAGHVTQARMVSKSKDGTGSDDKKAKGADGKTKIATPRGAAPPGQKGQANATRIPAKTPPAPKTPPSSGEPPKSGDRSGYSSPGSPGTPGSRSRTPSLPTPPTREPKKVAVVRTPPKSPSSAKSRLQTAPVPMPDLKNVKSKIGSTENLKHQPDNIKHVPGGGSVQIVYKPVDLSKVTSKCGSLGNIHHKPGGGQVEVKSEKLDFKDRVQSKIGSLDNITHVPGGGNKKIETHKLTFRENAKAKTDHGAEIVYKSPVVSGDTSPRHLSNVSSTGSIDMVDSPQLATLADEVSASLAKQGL

ACTACGCGGCCGCCCTGGAGAATCCCGGTGCCGAGGCCGCTCAATTGGTCGTAGACAGCTCTAGCACCGCTTAAACGCACGTACGCGCTGTCCCCCGCGTTTTAACCGCCAAGGGGATTACTCCCTAGTCTCCAGGCACGTGTCAGATATATACATCCTGTGCATGTAAGATCCAGT (double strand) [177 bp DNA (601)]
pKd: 6.37
